Measured values as given in the supplement of paper PMC7125110.
± gives the standard error. For some assays here: Fewer inactive variants are shown than the library holds.

B1: glmS ribozyme (parent)
chain: AUAAAAGCGCCAGAACUACAGAAAUGUAGUUGACGAGGAGGAGGUUUAUCGAAUUUUCGGCGGAUGCCUCCAAA

How the values were obtained:
Conditions in all cases: with glucosamine-6-phosphate
glucosamine-6-phosphate [1] = variants of: B1; assay: kcat; higher = faster cleavage; RNA array
Outline: (§1)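 Tracking of barcoded ribozyme variants used a hybridised Cy3 probe at 37 °C, after in situ transcription by E. coli RNA polymerase on sequenced MiSeq chips. The flowed solution held 40 μM to 10 mM glucosamine-6-phosphate in HEPES/KCl/Mg(OAc)2 buffer, and imaging ran over ~14 h. kobs was taken from exponential decay fits of normalised per-tile medians, and kcat and KM from weighted Michaelis–Menten fits.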

glucosamine-6-phosphate [2] = variants of: B1; assay: KM; higher = weaker cofactor use; RNA array
Outline: as §1

glucosamine-6-phosphate [3] = variants of: B1; assay: self-cleavage kobs at 2500 uM GlcN6P; higher = faster cleavage; RNA array
Outline: as §1

glucosamine-6-phosphate [4] = variants of: B1; assay: self-cleavage kobs at 10000 uM GlcN6P; higher = faster cleavage; RNA array
Outline: as §1

glucosamine-6-phosphate [5] = variants of: B1; assay: self-cleavage kobs at 40 uM GlcN6P; higher = faster cleavage; RNA array
Outline: as §1

glucosamine-6-phosphate [6] = variants of: B1; assay: self-cleavage kobs at 160 uM GlcN6P; higher = faster cleavage; RNA array
Outline: as §1

glucosamine-6-phosphate [7] = variants of: B1; assay: self-cleavage kobs at 640 uM GlcN6P; higher = faster cleavage; RNA array
Outline: as §1

| Variant | kcat (glucosamine-6-phosphate [1]) [s⁻¹] | KM (glucosamine-6-phosphate [2]) [µM] | self-cleavage kobs at 2500 uM GlcN6P (glucosamine-6-phosphate [3]) [s⁻¹] | self-cleavage kobs at 10000 uM GlcN6P (glucosamine-6-phosphate [4]) [s⁻¹] | self-cleavage kobs at 40 uM GlcN6P (glucosamine-6-phosphate [5]) [s⁻¹] | self-cleavage kobs at 160 uM GlcN6P (glucosamine-6-phosphate [6]) [s⁻¹] | self-cleavage kobs at 640 uM GlcN6P (glucosamine-6-phosphate [7]) [s⁻¹] |
| --- | --- | --- | --- | --- | --- | --- | --- |
| A6U C16U C68U | 9.14e-05 ± 3.2e-06 | 625 ± 120 | 7.4e-05 ± 1.9e-05 | 8.55e-05 ± 2e-05 |  |  |  |
| G13C A14U C68U | 1.07e-05 ± 1.2e-06 |  |  |  |  |  |  |
| A48G U55A | 0.000106 ± 2.6e-06 | 1160 ± 180 | 7.8e-05 ± 3.7e-05 | 9.5e-05 ± 8.9e-06 |  |  |  |
| U56A | 0.0171 ± 0.0053 | 1750 ± 650 | 0.00725 ± 0.00034 | 0.0213 ± 0.00079 | 0.000397 ± 7.8e-06 | 0.00127 ± 7.4e-05 | 0.00479 ± 0.00018 |
| A20C | 0.0144 ± 0.0036 | 327 ± 110 | 0.0111 ± 0.0039 |  | 0.00153 ± 0.00021 | 0.00529 ± 0.0011 | 0.00992 ± 0.003 |
| A12U G40C | 0.00584 ± 0.0009 | 1420 ± 310 | 0.00529 ± 0.0011 | 0.00509 ± 0.00057 | 0.000175 ± 2e-05 | 0.000567 ± 9.5e-05 | 0.0014 ± 0.00029 |
| U65A G66C | 0.000476 ± 5.1e-05 | 1400 ± 320 | 0.000267 ± 8.2e-05 | 0.000436 ± 8.9e-05 |  |  | 0.000156 ± 3.2e-05 |
| A12G U45G | 0.000591 ± 1.8e-05 | 5260 ± 300 | 0.000197 ± 4.2e-05 | 0.000386 ± 3.9e-05 |  |  | 6.36e-05 ± 1.3e-05 |
| G43U A52G | < 1e-05 | 5960 ± 590 |  |  | < 1e-05 | < 1e-05 | < 1e-05 |
| U30G G66U | 0.000295 ± 2e-05 | 1760 ± 290 | 0.000147 ± 3.5e-05 | 0.000256 ± 2.4e-05 |  |  | 8.02e-05 ± 1.2e-05 |
| U46G C71U | 0.00721 ± 0.0015 | 1750 ± 550 | 0.00497 ± 0.00059 | 0.00576 ± 0.00058 | 0.00018 ± 1.7e-05 | 0.000349 ± 8.8e-05 | 0.00219 ± 0.00026 |
| U45G C68G | 0.000114 ± 1.6e-05 | 2980 ± 1100 | 4.55e-05 ± 1.3e-05 | 8.96e-05 ± 1.3e-05 |  |  | 2.89e-05 ± 1.3e-05 |
| C11U G13C A52U C70U | 1.58e-05 ± 5.8e-06 |  |  | < 1e-05 | < 1e-05 |  |  |
| C16A A33U | 1.2e-05 ± 3e-06 |  |  |  | < 1e-05 | < 1e-05 |  |
| C58U U69G | 4.53e-05 ± 1.7e-05 |  | 7.55e-05 ± 1.9e-05 |  | 2.63e-05 ± 1.1e-05 | 5.15e-05 ± 1.5e-05 | 6.7e-05 ± 1.6e-05 |
| A14C G29U | 0.000857 ± 0.00017 | 1650 ± 550 | 0.000556 ± 8.5e-05 | 0.000697 ± 0.0001 | 4.05e-05 ± 1.2e-05 | 5.99e-05 ± 1.3e-05 | 0.000267 ± 3.9e-05 |
| A12C A14U | 0.000416 ± 3.2e-05 | 2270 ± 350 | 0.000202 ± 2.4e-05 | 0.000348 ± 2.9e-05 |  | 3.61e-05 ± 9.3e-06 | 9.07e-05 ± 1e-05 |
| G13U G32C | 0.000465 ± 0.00015 |  | 0.000121 ± 1.6e-05 | 0.000328 ± 2.8e-05 |  |  | 7.27e-05 ± 1e-05 |
| G13U U46A | 3.16e-05 ± 1.5e-06 | 479 ± 200 | 2.81e-05 ± 1.2e-05 | 2.96e-05 ± 9.4e-06 |  |  |  |
| U56C G66A | 0.00312 ± 0.0012 |  | 0.00117 ± 0.00022 | 0.0022 ± 0.00026 | 6.93e-05 ± 1.3e-05 | 8.16e-05 ± 1.9e-05 | 0.000501 ± 8.4e-05 |
| A33U | 0.00014 ± 3.2e-06 | 2770 ± 160 | 6.53e-05 ± 1.2e-06 | 0.000111 ± 1.4e-06 |  |  | 2.78e-05 ± 1.1e-06 |
| G13U U65G | 0.000372 ± 2.8e-05 | 3750 ± 540 | 0.000136 ± 2.7e-05 | 0.000276 ± 3.5e-05 |  |  | 5.82e-05 ± 1.2e-05 |
| U55G A64U | 0.000152 ± 1.9e-05 | 3480 ± 950 | 6.75e-05 ± 8.7e-06 | 0.00011 ± 1.4e-05 |  |  |  |
| C11A A15G | 0.000255 ± 2.9e-05 | 1280 ± 310 | 0.000149 ± 1.9e-05 | 0.000251 ± 3.3e-05 |  | 3.04e-05 ± 1.5e-05 | 8.86e-05 ± 1e-05 |
| C61A C68G | 1.96e-05 ± 3.4e-06 |  |  |  |  |  |  |
| G60A A64G | 2.24e-05 ± 4.8e-07 | 1390 ± 160 |  |  |  |  |  |
| A6G U30G | 0.000154 ± 1.6e-05 | 5370 ± 1400 | 5.13e-05 ± 1.9e-05 | 9.98e-05 ± 1.4e-05 | < 1e-05 | < 1e-05 |  |
| A6C U30A | < 1e-05 |  |  |  | < 1e-05 | < 1e-05 |  |
| G40A U45A | 0.00316 ± 0.00068 | 510 ± 160 | 0.00221 ± 0.00084 | 0.00427 ± 0.00099 | 0.000251 ± 3.8e-05 | 0.000585 ± 0.00027 | 0.00157 ± 0.00029 |
| G40U A52G | 0.000217 ± 3.4e-05 | 1490 ± 600 | 0.000112 ± 1.8e-05 | 0.000206 ± 2.5e-05 |  |  | 7.61e-05 ± 1.5e-05 |
